Data taken from patent US20150353951A1, “SYNTHETIC GLYPHOSATE-RESISTANT GENE AND USE THEREOF” (priority 2012, published 2015).
Where “and” joins values, the source holds several entries; their conditions need not be identical. Equal values may be shown once. Entries after “also recorded” stand apart in the source; their conditions may differ.

B1: mG2-aroA: codons optimized glyphosate-resistant gene, SEQ ID NO. 2, encoding G2-aroA protein; tested as T6 transgenic maize (nucleic acid)
DNA: ATGGCGTGCCTCCCTGACGATTCTGGTCCGCATGTCGGACACTCCACTCCACCTCGCCTGGACCAGGAGCCCTGTACCTTGTCGTCCCAGAAGACGGTTACGGTGACGCCACCCAACTTCCCGTTGACTGGGAAGGTCGCTCCACCTGGCTCCAAGTCTATCACCAACCGTGCACTGTTGCTGGCTGCGTTGGCCAAAGGGACCAGTCGGTTGAGCGGTGCGCTCAAGTCGGATGACACTCGCCACATGTCGGTGGCTCTGAGGCAGATGGGTGTCACGATCGACGAACCGGATGACACGACCTTCGTGGTCACGAGCCAAGGCAGCCTCCAGCTGCCAGCCCAACCGTTGTTCCTCGGCAATGCTGGCACCGCTATGCGCTTCCTCACGGCTGCGGTGGCCACCGTCCAAGGCACGGTCGTTCTGGATGGCGATGAGTACATGCAGAAGCGTCCCATCGGACCCTTGCTGGCGACGCTTGGACAGAACGGCATCCAAGTGGATTCTCCCACCGGTTGCCCACCCGTCACCGTGCACGGCATGGGCAAGGTCCAAGCGAAGCGGTTCGAGATCGACGGTGGGCTCTCCTCCCAGTACGTCTCAGCCCTGCTCATGCTCGCTGCGTGTGGCGAGGCACCGATCGAGGTTGCGCTCACAGGCAAGGACATCGGTGCCAGAGGGTACGTGGACCTGACCCTCGACTGCATGAGAGCCTTTGGAGCACAGGTTGACGCAGTGGACGACACGACCTGGAGGGTCGCTCCCACAGGGTACACCGCTCATGACTATCTCATCGAACCCGACGCCAGCGCTGCGACGTACTTGTGGGCAGCCGAGGTCCTGACCGGTGGCAGGATTGATATTGGCGTTGCTGCGCAGGACTTCACCCAACCGGACGCCAAGGCTCAAGCCGTGATTGCGCAGTTCCCTAACATGCAAGCCACCGTGGTTGGCTCCCAGATGCAGGACGCGATCCCGACCCTGGCTGTCCTCGCAGCCTTCAACAATACTCCCGTGCGCTTCACTGAGCTTGCCAACCTTAGGGTCAAGGAGTGCGATCGCGTGCAAGCCCTGCACGATGGGCTCAACGAGATCAGGCCAGGCCTCGCCACCATCGAGGGAGACGACCTGCTCGTGGCCAGCGACCCAGCGCTTGCAGGGACAGCCTGCACAGCCCTGATCGACACCCACGCTGACCATCGCATCGCGATGTGCTTTGCCCTGGCTGGCCTTAAGGTCTCAGGCATTCGCATTCAGGACCCTGACTGCGTGGCCAAGACCTACCCTGACTACTGGAAGGCTCTTGCCAGCCTTGGCGTTCACCTCAACGACTGATGA
B2: G2-aroA: initial prokaryote glyphosate-resistant gene, SEQ ID NO. 1; tested as T6 transgenic maize (nucleic acid)
DNA: ATGGCGTGTTTGCCTGATGATTCGGGTCCGCATGTCGGCCACTCCACGCCACCTCGCCTTGACCAGGAGCCTTGTACCTTGAGTTCGCAGAAAACCGTGACCGTTACACCGCCCAACTTCCCCCTCACTGGCAAGGTCGCGCCCCCCGGCTCCAAATCCATTACCAACCGTGCGCTGTTGCTGGCGGCATTGGCCAAGGGCACCAGCCGTTTGAGCGGTGCGCTCAAAAGCGATGACACGCGCCACATGTCGGTCGCCCTGCGGCAGATGGGCGTCACCATCGACGAGCCGGACGACACCACCTTTGTGGTCACCAGCCAAGGCTCGCTGCAATTGCCGGCCCAGCCGTTGTTCCTCGGCAACGCTGGCACCGCCATGCGCTTTCTCACGGCTGCCGTGGCCACCGTGCAAGGCACCGTGGTACTGGACGGCGACGAGTACATGCAAAAACGCCCGATTGGCCCGCTGCTGGCTACCCTGGGCCAGAACGGCATCCAGGTCGACAGCCCCACCGGTTGCCCACCGGTCACCGTGCACGGCATGGGCAAGGTCCAGGCCAAGCGTTTCGAGATTGATGGTGGTTTGTCCAGCCAGTACGTATCGGCCCTGCTGATGCTCGCGGCGTGCGGCGAAGCGCCGATTGAAGTGGCGCTGACCGGCAAGGATATCGGTGCCCGTGGCTACGTGGACCTGACCCTCGACTGCATGCGTGCCTTCGGGGCCCAGGTGGACGCCGTGGACGACACCACCTGGCGCGTCGCCCCCACCGGCTATACCGCCCATGATTACCTGATCGAACCCGATGCGTCCGCCGCCACGTATTTGTGGGCCGCAGAAGTGCTGACCGGTGGGCGTATCGACATCGGCGTAGCCGCGCAGGACTTCACCCAGCCCGACGCCAAGGCCCAGGCCGTGATTGCGCAGTTCCCGAACATGCAAGCCACGGTGGTAGGCTCGCAAATGCAGGATGCGATCCCGACCCTGGCGGTGCTCGCCGCGTTCAACAACACCCCGGTGCGTTTCACTGAACTGGCGAACCTGCGCGTCAAGGAATGTGACCGCGTGCAGGCGCTGCACGATGGCCTCAACGAAATTCGCCCGGGCCTGGCGACCATCGAGGGCGATGACCTGCTGGTCGCCAGCGACCCGGCCCTGGCAGGCACCGCCTGCACCGCACTGATCGACACCCACGCCGACCATCGCATCGCCATGTGCTTTGCCCTGGCCGGGCTTAAAGTCTCGGGCATTCGCATTCAAGACCCGGACTGCGTGGCCAAGACCTACCCTGACTACTGGAAAGCCCTGGCCAGCCTGGGCGTTCACCTAAACGACTGA

Experiments:
[1] = test system: G2-aroA protein; assay: Double-antibody sandwich ELISA detection of G2-aroA protein expression in transgenic maize leaves; assay type: in vivo; conditions: for G2-aroA protein concentration: T6 generation transgenic maize, five-leaf stage, leaf fresh weight, single plants 1-4; for expression amount of G2-aroA protein in per gram (fresh weight) of leaf plate: transgenic maize
Method: The sample extracting solution: 25 mM of Tris-Cl (pH8.0), 10 mM of KCl, 20 mM of MgCl2.6H2O, 1 mM of DTT, 1 mM of PMSF (added before using).
Taking T6 generation transgenic maize plants (including plants transformed with the mG2-aroA gene and plants transformed with G2-aroA gene) at the same growth state (five-leaf stage), and taking about 1 g (fresh weight) of each function leaf (top-three leaves) plates, then grinding in liquid nitrogen. Transferring into 10 ml of centrifugal tube, into which 3 ml of sample extracting solution was added, and shaking strongly. Then centrifugalizing for 1 h at 4° C. The supernatant was taken as a sample to be detected and stand by service. Since the transformed genes are different, there are two samples to be detected, that is, a sample derived from mG2-aroA transgenic plants (sample to be detected is mG2-aroA) and a sample derived from G2-aroA transgenic plants (sample to be detected is G2-aroA). At the same time, the T6 generation maize plants transformed with pS3300-UG0 blank vector and the non-transgenic maize plants were used as controls.
The weight weighting when the leaf plates were ground in liquid nitrogen into powder samples and added into centrifugal tube containing the extracting solution subtracts that weighting before adding sample into centrifugal tube containing the extracting solution to obtain the fresh weight described above.
(1) Coating: the primary antibody (rabbit antibody) with concentration of 1.5 mg/ml (preparation method, see last part of this specification) against G2-aroA protein was diluted in coating buffer. And then after dilution added into ELIAS plate with a volume ratio of 1:1000 between polyclonal antibody against G2-aroA protein and coating buffer, 100 μL per well, and coating overnight in wet box at 4° C. […]
In another aspect, the sample to be detected prepared in step 1 was diluted with sample buffer in a ratio of 1:5, and then 100 μL of diluted sample was added to each well. […]
(9) Measurement: the OD value was measured at 405 nm.
(10) Plotting the standard curve: the standard solution concentration of G2-aroA protein of various of concentration (ng/mL) was plotted on X axis, and the OD value of G2-aroA protein standard measured in step (9) was plotted on Y axis, then the standard curve was plotted by EXCEL.
(11) The OD value of sample to be detected measured in step (9) was used in standard curve equation obtained in step (10) to calculate the content of G2-aroA protein in sample to be detected.
The content of G2-aroA protein in fresh weight=the content of G2-aroA protein of sample to be detected×the volume of sample to be detected/fresh weight of the sample, unit: μg/g. […]

[2] = test system: T6 generation transgenic maize plants; assay: Detection of herbicide (Roundup/glyphosate) resistance of transgenic maize plants in field; assay type: in vivo; conditions: for phytotoxicity after Roundup treatment: 800 ml/mu Roundup (41% glyphosate) at 5-6 leaf age; for phytotoxicity response at late stage of plants growth: 800 ml/mu Roundup at 5-6 leaf age
Method: 1. the experimental materials: T6 generation transgenic maize plants, including plants transformed with mG2-aroA gene, plants transformed with G2-aroA gene, and plants transformed with pS3300-UG0 blank vector. At the same time, the non-transgenic maize plants were used as a control.
2. experiment design: 5M of row length, 3 row plots, 3 times of repeat, density: 60×35 cm
3. experiment treatment: applying Roundup (containing 41% of glyphosate, recommbinated applying amount in field is 150-250 ml/mu) in an amount of 800 ml/mu.
4. the experiment treatment timing: 5-6 leaf age. The experimental result was observed 7 days later.

| Molecule | G2-aroA protein concentration [1] | expression amount of G2-aroA protein in per gram (fresh weight) of leaf plate [1] | phytotoxicity after Roundup treatment [2] | phytotoxicity response at late stage of plants growth [2] |
| --- | --- | --- | --- | --- |
| B1 | 3.304 µg/g and 2.977 µg/g and 4.321 µg/g and 4.339 µg/g | up to 15.057 μg | phytotoxicity was not obvious, they grew normally | no phytotoxicity response |
| B2 | 10.671 µg/g and 20.227 µg/g and 14.237 µg/g and 15.096 µg/g | 3.735 µg | very serious phytotoxicity, and all plants showed yellowing, abnormalities; also recorded: phytotoxicity was very serious, plants all show yellowing, abnormalities | most of plants showed that the tassels did not differentiate, and ears did not silk or plants were short |
